Test results published in the nanobody polyreactivity screen of Harvey et al. (2022).

Assay: yeast display, Sf9 membrane polyspecificity reagent, FACS + sequencing; frameworks hold sequencing errors
Method in brief: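 After 36–48 hours of galactose induction, yeast (Saccharomyces cerevisiae BJ5465) displaying a synthetic nanobody library were stained at 4 °C for 1 hour with 10% biotinylated, detergent-solubilized Sf9 membrane reagent. Streptavidin microbeads enriched the stained cells before FACS sorting into low and high (top ~1%) gates on anti-HA and streptavidin fluorescence. Each clone's polyreactivity label reflects its gate of origin.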

Row | Sequence | polyreactivity (PSR sort gate)
1 | QVQLVESGGGLVQAGGSLRLSCAASGRTFRRNAMGWYRQAPGKERELVASITRNGGSTYYADSVKGRFTISRDNAKNTVYLQMNILKPEDTAVYYCYKTQPIDLYGYWGQGTQVTVSS | high polyreactivity
2 | QVQLVESGGGLVQAGGSLRLSCAASGRTFQSNAMGWYRQAPGNERELVAAISRRGGSTYYADSVKGRFTISRDNEKNTVYLQMNCLKPEDTAVYYCNRDAKAGDWGQGTQVTVSS | high polyreactivity
3 | QVQLVESGGGLVQAGGSLRLSCAASGRTLTIYAMGWYRQAPGKERELVATIRSSGSTNYADSVKGRFTISRDNAKNTVYLQMNSLKPEDTAVYYCAARGNTPRTRRYGYWGQGTQVTVSS | high polyreactivity
4 | QVQLVESGGGLVQAGGSLRLSCAASGFTFSYYDMGWYRQAPGTERELVAAISWSGGSTYYADSVKGRFTISRDNAKITVYLQMNSLKPEDTAVYYCNTDTDTTSSGYVYWGQGTQVTVSS | low polyreactivity
5 | QVQLVESGGGLVQAGGSLRLSCAASGIIFASNAMGWYRQAPGKERELVAAINRSGGSTYYADSVKGRFTISRDNAKNTVYLQMNSMKPEDTAVYYCAADYRFYSPTKYSYDYWGQGTLVTVSS | high polyreactivity
6 | QVQLIESGGGLVQAGGSLRLSCAASGRTFRYNAMGWYRQAPGKERELVAGISTGGSTYYADSVKGRFTISRDNAKNTVYLQMNSLKPEDTAVYYCARYYHARPNGPRSDDYDYWGQGTQVTVSS | low polyreactivity
7 | QVQLVESGGGLVQAGGSLRLSCAASGFIFRWYAMGWYRQAPGKERELVAAISRSGDSTYYADSVKGRFTISRDNAKNTVYLQMNSLKPEDTAVYYCAADDRYYTYGYDYWGQGTQVTVSS | low polyreactivity
8 | QVQLVESGGGLVQAGGSLRLSCAASGSIFAVYAMGWYRQAPGKERELVAASSTDYADSVKGRFTISRDNAKNTVYLQMNSLKPEDTAVYYCAKVGFGIPGGFYFWGQGTQVTVSS | low polyreactivity
9 | QVQLVESGGGLVQAGGSLRLSCAASGSIFYVYAMGWYRQAPGNERELVAAINTSGGSTFYADSVKGRFTISRDNAKNTVYLQINSLKPEDTAVYYCAAERYRYRSTDTMGYWGQGTQVTVSS | low polyreactivity
10 | QVQLVESGGGLVQAGGSLRLSCAASGSTFDRYAMGWYRQAPGKERELVAAISWSGGSTYYADSVKGRFTISRDNAKNTVYLQMNSLKPEDTAVYYCARRYARITPVYAPLNYWGQGTQVTVSS | high polyreactivity
11 | QVQLVESGGGLVQAGGSLLLSCAASGGTFYYYAMGWYRQAPGKERELVASISSRGGSTYYADSVKGRFTISRDNAKNTVYLQMNSLKPEDTAVYYCAARSLYRGFGYWGQGTQVTVSS | high polyreactivity
12 | QVQLVESGGGLVPAGGSLRLSCAASGSIFTNAMGWYRQAPGKERELVAAIDANAGDTHYADSVKGRFTISRDNAKNTVYLQMNSLKPEDTAVYSCNADVTERLWTGEDDYWGQGTQVTVSS | low polyreactivity
13 | QVQLVESGGGLVQAGGSLRLSCAASGSTLYAYAMGWYRQAPGKERELVAGISSSGARTYYADSVKGRFTISRDNAKITVYLQMNSLKPEDTAVYYCAALAPVGTSKSYGYWGQGTQVTVSS | high polyreactivity
14 | QVQLVESGGGLVQAGGSLRLSCAASGSTFPSNAMGWYRQAPGKERELVAAIRGRGGSTYYADSVKGRFTISRDNAKNTVYLQMNSLKPEDTAVYYCAKKVRSYVRWEYDYWGQGTQVTVSS | low polyreactivity
15 | QVQLVESAGGLVQAGGSLSLSCAASGRIFTDYAMGWYRQAPGKERELVARISRSDGSTYYADSVKGRFSISRDNAKNNVYLQMNSLKAEDTAVYYCAAQWTDGRRDHWWDKGFYYWGLGTQVTVSS | low polyreactivity
16 | QVQLVESGGGLVQAGGSLRLSCAASGRIFRIYTMGWYRQAPGKERELVAAITKSGGSTSYADSVKGRFTISRDNAKNTVYLQMNILKPEDTAVYYCNAKGWTRPPGYDYWGQGTQVTVSS | high polyreactivity
17 | QVQLVESGGGLVQAGGSLRLSCAASGFTFSRYAMGWYRQAPGKERELVAAIRLRDGITYYADSVKGRFTISRDNAKNTVYLQMISLKPEDTAVYYCNAVNRTPVSQLDYWGQGTQVTVSS | high polyreactivity
18 | QDQLVESGGGLVQAGGSLRLSCAASGSIFKINAMGWYRQAPGKERELVATITWSTGTTYYADSVKGRFTISRDNAKNTVYLQMYSLKPEDTAVYYCATDGDSTKLDYWGQGTQVTVSS | low polyreactivity
19 | QVQLVESGGGLVQAGGSLRLSCVPPDLPSTLNVMGWYRQAPGKERELVAAISQRGGSTYYADSVKGRFTISRDNAKNTVYLEMNSLKPEDTAVYYCAAGPGDSGDDYWGQGTQVTVSS | low polyreactivity
20 | QVQLVESGGGLVQAGGSLRLSCAASGSIFYTYVMGWYRQAPRKERELVAAITRAGNTYYADSVKGRFTISRDNAKKTVYLQMNILKPEDTAVYYCAAGRYKPFTYHFDYWGQGTQVTVSS | high polyreactivity
21 | QVQLVESGGGLVQAGGSLRLSCAAYGSIFSGYTMGCYRQAPGKERELVAAITQRGTRTYYADSVKGRFTISRDNAKNTVYLQMNSLKPEDTAVYYCAAVRSYYSNRGYDYWGQGTQVTVSS | high polyreactivity
22 | QVQLVESGGGLVQAGGSLRLSCAASGFTFGTYAMGWYRQAPGKERELVASIRTDDSTYADSVKGRFTISRDNAKNTVYLQMNSLKPEDTAVYYCAVDGYVIYVYDTYDYWGQGTQVTVSS | low polyreactivity

Row | Sequence | polyreactivity (PSR sort gate)
23 | QVQLVESGGGLVQAGGSLRLSCAASGFIFSYYTMGWYRQAPGKERELVAAITSGGSTNYADSVKGRFTISRDNAKNTVYLQMNSLKPEDTAVYYCNALLWAWTLWGSGYDYWGQGTQVTVSS | low polyreactivity
24 | QVQLVESGGGLVQAGGSLRLSCAASGLSSLRMLWDGIDRRLGKKGSWLPLITSGGDSTNYADSVKGRFTISRDIAKNTVYLQMNSLKPEDTAVYYCAADLDYPYGYWGQGTQVTVSS | low polyreactivity
25 | QVQLVESGGGLVQAGGSLRLSCAASGRIFKTYAMGWYRQAPGKERELVAGISWRGGSTYYADSVKGRFTISRDNAKNTVYLQMNSLKPEDTAVYYCAADDTYTRYDYWGQGTQVTVSS | high polyreactivity
26 | QVQLVESGGGLVQSGGSLRLSCAASGITFFFNAMGWYRQAPGKERELVAPITSGGGSTYYADSVKGRFTISRENAKNTVYLQMNSLKPEDTAVYYCAAEWSYGGMDYWGQGTQVTVSS | low polyreactivity
27 | QVQLVESGGGLVQAGGSLRLSCASSGFTFVYNAMGWYRHAPGKERELVAAITSGGNTYYADSVKGRFTISRDNAKNTVYLQMNSLIPEDTAVYYCAKRGYGRYYAYDYWGQGTQVTVSS | high polyreactivity
28 | QVQLVESGGGLVQAGGSLRISCAASGFTFYNYAMGWYRQAPGKRELVAAITSGGRTNYADSVKGRFTISRDNAKNTVYLQMNSRIPEDTAVYYCNAYPRWKFRSQVYDGWYGRFDYWGQGTQVTVSS | high polyreactivity
29 | QVQLVESGGGLVQAGGSLRLSCAASVITVRSYAMGWYRQAPGKERELVARISTDADTYYADSVKGRFTISRDNAKITVYLHMNSLKPEDTAVYYCAAEDYWDFDYWGQGTQVTVSS | low polyreactivity
30 | QVQLVESGGGLVQAGGSLRLSCAASGRTFYYYAMGWYRQAPGKEREFVAAISWSGVRTSYADSVKGRFTISRDNAKNTVYLQMNSQKPEDTAVYYCNVAVAFYYDYWYSTYLTYEYDYWGQGTQVTVSS | high polyreactivity
31 | QVQLVETGGGLVQAGGSLRLSCAASGSTFYNYAMGWYRQAPGKEREFVAAISWGGGSTRYADSVKGRFTISRDYAKNTVYLQMNSLKPEDTAVYYCAARYPHYDYYYWGQGTQVTVSS | high polyreactivity
32 | QVQLVESGGGLVQAGGSLRLSCAASGRIFYPNAMGWYRQAPGKERELVAAISSGGRTNYADSVKGRFTISRDNAKNTVYLQMNSLKPEDNAVYYCAARDRSQYTSTYAFGGGYWGHGTQVTVSS | low polyreactivity
33 | QVQLVESGGGLVQAGGSLRLSCAASGSIFVYYAMGWYRQAPGKERELVAAISQRGGRTYYADSVKGRFTISRDNAKNTVYLQMNSLKPEDTAVYYCAARAWTRSVPYGFYYWGQGTQVTVSS | high polyreactivity
34 | QVQLVESGGGLDQAGGSLRLSCAASGFIFNNYAMGSYRQAPGKERELVAAITWSGGGTYYADSVKGRFTISRDNAKNTVYLQMNSLKPEDTAVYYCADYYPAYRDEYWGQGTQVTVSS | high polyreactivity
35 | LVQLQESGGCLVLAGGGLRLSCAASGNIFTYVIMGWYRQPPGKERELVAAITYGTITNYADSVKGPFTISRDNAKNTVYMQMNCLKPEDTAVYHCAVQSPRIEPRLYYWGQGTQVTVSS | high polyreactivity
36 | QVQLVESGGGLVQAGGSLRLSCAASGRTFTLNAMGWYRQAPGKERELVAAISGDTGSTYYADSVKGRFTISRDNAKNTVFLQMNSLKPEDTAVYYCATRHAGTWYYWFERYYWGQGTQVTVSS | high polyreactivity
37 | QVQLVESGGGLVQAGGSLRLSCAPSGFTFLKNAMGWYRQAPGKERELVAAITGSGGSTYYADSVKGRFTISRDTEKNTVYLQMYSLKPEDTAVYYCNVRRGLRDYEYWGQGTQVTVSS | high polyreactivity
38 | QVQLVESGRGLVQAGGSLRLSCAGSGSIFEGYVMGWSRQAPGKEMELVAAITSGGGSTYYADSVKGRFTSSRDNAKNTVYLQMISVKPVDTALYYCNAVYRWVYRSYEYWGQGTQGTVSS | high polyreactivity
39 | QVQLVESGGGFVQAGGSLRLSCAASGRTFRWNAMGWYRQAPGKERELVAAISSGGSTYYADSVKGRFTISRDNAKNTVYLQMNSLKPEDTAVYYCAKTSFKYRWSYPVISMDYWGQATQVTVSS | high polyreactivity
40 | QVQLVESGGGLVQAGGSLRLSCAASGSIFGYNVMGWYRQAPGKEWELVAAITYSGGSTYYADSVKGRFTISRDNAKNTVYLQMNSLKPEDTAVFYCNAVTLRRIYSNPEYDSWGQGTQVSVSS | high polyreactivity
41 | QVQLVESGGGLVQAGGSLRLSCAASGRTLSVYAMGWYRQAPGKERELVAAITKSGGSTYYADSVKGRFTISRDNAKNTVYLQMNSLKPEDTAVYYCAAEGDWRGYALYNYWGQGTQVTVSS | low polyreactivity
42 | QVQLVESGGGLDQAGGSLRLSCAASGIIFGTNAMGWYIQAPGKESELVAAITWSGGNTTYADSVKGRFTISRDNAKNTVYLQMNSLKPEDTAVYYCAADFTRAGDYDYWGQGTQVTVSS | low polyreactivity
43 | QVQLVESGGGLVQAGGSLRLSCAASGRIFSNNVMGWNRQGPGKERELVATISTDGRTNYADSVKGRFTISRDNAKNTVYLQMNSQKPEDTAVSYCAATGVTLLLSSKSDYWGQGTQVTVSS | low polyreactivity
